Results on 2 substances are retold here after US20260250418A1.

The target of test [1] is monkey (Macaca fascicularis) HER3 on CHO-fasHER3 cells (monkey (Macaca fascicularis)). Description: flow cytometry, transfected CHO cells. (In general: In flow cytometry, cells or beads pass a laser one at a time.)
Test [2] concerns the target human HER3 on CHO-hHER3 cells (human) (UniProt P21860). The test can be described thus: flow cytometry, transfected CHO cells.
For test [3], the target named is dog HER3 on CHO-dHER3 cells (dog). Description: flow cytometry, transfected CHO cells.
Test [4] deals with mouse HER3 on CHO-mHER3 cells (mouse) (UniProt Q61526). The test can be described thus: flow cytometry, transfected CHO cells.
Test [5] has as its target monkey MET on NIH3T3-fasMET cells (monkey) (UniProt A0M8R7). The test can be described thus: flow cytometry, transfected NIH3T3 cells.
Test [6] addresses human MET on NIH3T3-hMET cells (human) (UniProt P08581). Description: flow cytometry, transfected NIH3T3 cells.

Sequence of monkey MET on NIH3T3-fasMET cells (monkey) (A0M8R7 25-1381 S170N/I621T limits assumed): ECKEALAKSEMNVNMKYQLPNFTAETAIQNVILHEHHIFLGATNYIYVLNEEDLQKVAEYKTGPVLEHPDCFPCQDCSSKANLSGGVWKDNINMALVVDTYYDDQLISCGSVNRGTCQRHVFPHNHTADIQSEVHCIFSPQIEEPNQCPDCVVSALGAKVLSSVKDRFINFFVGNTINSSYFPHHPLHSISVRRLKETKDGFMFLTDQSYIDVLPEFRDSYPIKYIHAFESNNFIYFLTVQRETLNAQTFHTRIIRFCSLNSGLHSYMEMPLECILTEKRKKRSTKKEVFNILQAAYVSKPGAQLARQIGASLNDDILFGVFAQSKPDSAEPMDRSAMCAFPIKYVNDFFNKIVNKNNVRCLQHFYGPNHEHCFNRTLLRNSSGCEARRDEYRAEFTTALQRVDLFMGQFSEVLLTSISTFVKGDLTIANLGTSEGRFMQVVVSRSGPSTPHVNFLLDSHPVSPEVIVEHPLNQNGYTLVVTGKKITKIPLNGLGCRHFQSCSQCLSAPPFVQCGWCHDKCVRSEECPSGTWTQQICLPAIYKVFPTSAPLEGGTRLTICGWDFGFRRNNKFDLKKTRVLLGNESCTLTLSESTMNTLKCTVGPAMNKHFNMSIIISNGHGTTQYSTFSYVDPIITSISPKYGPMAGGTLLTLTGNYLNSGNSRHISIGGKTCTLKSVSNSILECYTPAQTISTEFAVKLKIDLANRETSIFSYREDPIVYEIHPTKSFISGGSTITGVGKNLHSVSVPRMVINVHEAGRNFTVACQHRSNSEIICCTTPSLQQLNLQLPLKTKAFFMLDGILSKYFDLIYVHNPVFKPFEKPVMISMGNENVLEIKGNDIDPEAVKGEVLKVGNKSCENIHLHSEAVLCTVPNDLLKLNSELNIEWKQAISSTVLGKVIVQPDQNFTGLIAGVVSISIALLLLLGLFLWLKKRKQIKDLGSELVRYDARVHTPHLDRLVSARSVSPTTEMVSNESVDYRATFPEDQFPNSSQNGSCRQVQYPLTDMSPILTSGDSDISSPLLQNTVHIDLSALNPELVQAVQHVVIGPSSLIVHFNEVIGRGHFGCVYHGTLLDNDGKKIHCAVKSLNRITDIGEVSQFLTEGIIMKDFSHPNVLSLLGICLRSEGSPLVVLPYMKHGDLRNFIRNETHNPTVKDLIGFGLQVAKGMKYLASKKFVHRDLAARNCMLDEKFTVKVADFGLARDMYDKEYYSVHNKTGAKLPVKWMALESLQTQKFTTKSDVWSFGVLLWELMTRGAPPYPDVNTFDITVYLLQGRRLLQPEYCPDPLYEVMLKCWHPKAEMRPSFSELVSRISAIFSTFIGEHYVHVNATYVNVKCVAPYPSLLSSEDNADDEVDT
Sequence of mouse HER3 on CHO-mHER3 cells (mouse) (Q61526 20-641): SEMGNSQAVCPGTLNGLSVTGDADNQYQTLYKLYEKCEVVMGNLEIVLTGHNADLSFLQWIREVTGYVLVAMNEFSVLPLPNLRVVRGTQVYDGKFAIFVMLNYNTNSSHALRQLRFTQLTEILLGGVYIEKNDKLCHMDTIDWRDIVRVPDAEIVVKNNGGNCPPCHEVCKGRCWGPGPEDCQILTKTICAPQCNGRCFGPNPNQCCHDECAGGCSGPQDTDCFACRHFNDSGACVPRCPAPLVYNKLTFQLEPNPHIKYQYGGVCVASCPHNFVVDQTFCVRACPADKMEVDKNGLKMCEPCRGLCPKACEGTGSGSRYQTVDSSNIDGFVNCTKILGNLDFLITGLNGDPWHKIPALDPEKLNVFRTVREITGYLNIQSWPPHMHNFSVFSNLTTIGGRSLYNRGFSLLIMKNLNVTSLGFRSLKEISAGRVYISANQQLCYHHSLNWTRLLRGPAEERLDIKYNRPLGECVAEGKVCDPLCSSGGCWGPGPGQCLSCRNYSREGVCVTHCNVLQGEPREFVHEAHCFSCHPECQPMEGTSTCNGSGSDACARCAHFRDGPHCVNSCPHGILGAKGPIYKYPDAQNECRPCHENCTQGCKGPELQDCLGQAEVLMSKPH
Sequence of human MET on NIH3T3-hMET cells (human) (P08581 25-1390 limits assumed): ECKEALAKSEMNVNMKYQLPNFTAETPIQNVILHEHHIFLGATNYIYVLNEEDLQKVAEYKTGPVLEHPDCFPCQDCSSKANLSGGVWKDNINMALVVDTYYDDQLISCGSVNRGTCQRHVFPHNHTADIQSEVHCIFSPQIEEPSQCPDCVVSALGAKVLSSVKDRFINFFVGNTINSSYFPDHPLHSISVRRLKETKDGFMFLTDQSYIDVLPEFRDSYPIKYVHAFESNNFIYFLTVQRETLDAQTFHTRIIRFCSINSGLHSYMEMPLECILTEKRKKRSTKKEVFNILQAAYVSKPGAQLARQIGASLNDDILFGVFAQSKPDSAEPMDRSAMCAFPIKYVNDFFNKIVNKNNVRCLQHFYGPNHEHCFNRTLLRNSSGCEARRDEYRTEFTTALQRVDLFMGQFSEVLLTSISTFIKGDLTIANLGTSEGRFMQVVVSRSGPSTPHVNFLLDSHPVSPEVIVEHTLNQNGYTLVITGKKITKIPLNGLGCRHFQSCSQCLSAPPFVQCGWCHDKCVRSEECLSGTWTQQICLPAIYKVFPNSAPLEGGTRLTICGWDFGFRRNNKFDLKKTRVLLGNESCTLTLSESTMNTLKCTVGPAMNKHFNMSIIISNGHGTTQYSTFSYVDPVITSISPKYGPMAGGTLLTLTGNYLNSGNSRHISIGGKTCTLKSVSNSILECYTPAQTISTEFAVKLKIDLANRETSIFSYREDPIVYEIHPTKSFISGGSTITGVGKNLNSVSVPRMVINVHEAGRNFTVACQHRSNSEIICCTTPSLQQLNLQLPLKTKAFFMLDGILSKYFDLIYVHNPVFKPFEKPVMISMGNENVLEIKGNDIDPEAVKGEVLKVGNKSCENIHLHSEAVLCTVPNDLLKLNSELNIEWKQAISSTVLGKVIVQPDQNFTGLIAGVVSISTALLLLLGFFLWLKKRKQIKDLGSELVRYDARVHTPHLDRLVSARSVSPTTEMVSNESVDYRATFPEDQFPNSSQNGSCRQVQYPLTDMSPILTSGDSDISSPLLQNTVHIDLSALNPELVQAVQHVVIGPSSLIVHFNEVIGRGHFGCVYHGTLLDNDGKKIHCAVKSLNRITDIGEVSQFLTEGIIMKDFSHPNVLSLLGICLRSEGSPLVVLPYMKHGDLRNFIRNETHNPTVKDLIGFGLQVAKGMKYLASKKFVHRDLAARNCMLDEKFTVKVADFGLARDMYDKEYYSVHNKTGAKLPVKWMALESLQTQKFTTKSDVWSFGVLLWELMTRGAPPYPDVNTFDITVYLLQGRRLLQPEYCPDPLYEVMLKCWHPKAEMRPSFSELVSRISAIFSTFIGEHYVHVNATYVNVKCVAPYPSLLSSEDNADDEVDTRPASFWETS

As to NC + secondary antibody, the Percentage of Positive Cells in test [1] came out at 0.9%; in test [2] it was 1.7%; in test [3], 1.6%; in test [4], 0.5%. The Positive Cells in test [1] worked out at 2.7%; in test [2], 2.8%; in test [5] it was 0.6%; in test [6] it was 2.4%.
Take NC: the Percentage of Positive Cells amounted to 0.2% in test [1], 0.4% in test [2], 1% in test [3] and 0.2% in test [4]. In addition, the Positive Cells in test [1] was found to be 3.2%; in test [2], 2.1%; in test [5] it was 0.5%; in test [6] it was 3.9%.
